Target: the molecule itself
Assay: cryo-EM structure

B1: near-full-length human calcium-sensing receptor (CaSR, residues 20-894), Flag-tagged (receptor)
chain: AAAYGPDQRAQKKGDIILGGLFPIHFGVAAKDQDLKSRPESVECIRYNFRGFRWLQAMIFAIEEINSSPALLPNLTLGYRIFDTCNTVSKALEATLSFVAQNKIDSLNLDEFCNCSEHIPSTIAVVGATGSGVSTAVANLLGLFYIPQVSYASSSRLLSNKNQFKSFLRTIPNDEHQATAMADIIEYFRWNWVGTIAADDDYGRPGIEKFREEAEERDICIDFSELISQYSDEEEIQHVVEVIQNSTAKVIVVFSSGPDLEPLIKEIVRRNITGKIWLASEAWASSSLIAMPQYFHVVGGTIGFALKAGQIPGFREFLKKVHPRKSVHNGFAKEFWEETFNCHLQEGAKGPLPVDTFLRGHEESGDRFSNSSTAFRPLCTGDENISSVETPYIDYTHLRISYNVYLAVYSIAHALQDIYTCLPGRGLFTNGSCADIKKVEAWQVLKHLRHLNFTNNMGEQVTFDECGDLVGNYSIINWHLSPEDGSIVFKEVGYYNVYAKKGERLFINEEKILWSGFSREVPFSNCSRDCLAGTRKGIIEGEPTCCFECVECPDGEYSDETDASACNKCPDDFWSNENHTSCIAKEIEFLSWTEPFGIALTLFAVLGIFLTAFVLGVFIKFRNTPIVKATNRELSYLLLFSLLCCFSSSLFFIGEPQDWTCRLRQPAFGISFVLCISCILVKTNRVLLVFEAKIPTSFHRKWWGLNLQFLLVFLCTFMQIVICVIWLYTAPPSSYRNQELEDEIIFITCHEGSLMALGFLIGYTCLLAAICFFFAFKSRKLPENFNEAKFITFSMLIFFIVWISFIPAYASTYGKFVSAVEVIAILAASFGLLACIFFNKIYIILFKPSRNTIEEVRCSTAAHAFKVAARATLRRSNV
B1: binds.

Reference: paper PMC8826748 (Nature, 2021)
